For the assay, the target named is SeMet-substituted C. elegans ZYG-1 cryptic polo-box (CPB) domain (residues 338-564) (C. elegans). The assay is described as follows: SEC-MALS. In general terms: SEC sorts molecules by how far they enter the pores of the column.

One may read the stoichiometry N as a count of units in the complex or per binding partner. Turning to “SeMet-substituted C. elegans ZYG-1 cryptic polo-box (CPB) domain (residues 338-564) (domain or fragment)”, the stoichiometry N came out at 2.

Source of the values: paper PMC4188077.
